Experimental data reported in patent US20250034594A1, “RNA-GUIDED GENOME RECOMBINEERING AT KILOBASE SCALE” (THE BOARD OF TRUSTEES OF THE LELAND STANFORD JUNIOR …, priority 2021, published 2025).

What was measured:
Format in all cases: cell-based
[1] = test system: gene editing with Cas9; assay: Screen of 322 new SSAP proteins, gene editing activity with Cas9 (Table 5); design: Cas9 with SSAP activity: scale not given here
Method in brief: (§1)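 Synthetic SSAP candidates, identified computationally, were tested in editing screens using both Cas9 and dCas9.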

[2] = test system: gene editing with dCas9; assay: Screen of 322 new SSAP proteins, gene editing activity with dCas9 (Table 5); design: dCas9 with SSAP activity: scale not given here
Method in brief: as §1

[3] = test system: gene editing with Cas9 and dCas9; assay: Screen of 322 new SSAP proteins, activity across all experiments (Cas9 and dCas9, Table 5); design: scale not given here
Method in brief: as §1

Molecule | Cas9 with SSAP activity [1] | Cas9 with SSAP activity (normalized) [1] | dCas9 with SSAP activity [2] | dCas9 with SSAP activity (normalized) [2] | Activity across all experiments [3]
SSAP_52: SEQ ID NO: 221 (protein) TIMDLLNDPKMKSQIQRALPNGMSAERIARIALTALRMNPQLQECSPQSFAAALMTSAQLGLEPNTPLGHAWLIPRKNHGKMEVQFELGYKGMLDLVRRSGMITAIFAEEVREKDEFEFEYGTNPYLKHKPYLGGDRGKVLFYYAVATFKDGGYAFKVMSIPEIEEARKLSQSANSPYSPWNRFYDEMAKKTVLKRLCKYLPLSIEVQRNLAQDETIRTQIEADDILDLPNENEFEVVEVEEIPGEEEKEEAKEGPFPNKALRESPTPLT | −0.544 | −0.573 | 0.163 | 0.148 | −0.190
SSAP_228: SEQ ID NO: 397; Weissella koreensis (protein, listed as Weissella koreensis) ANELVKQLKSEKVAAQFETTAGKNAAAFASEVAISVMGNKALENASLSSVVVEATKASALGLSLLPTVGEAYLVPYKGQAQFQLGYKGLVQLAMRSGQMKSFGTVKVYEGEHPRWDKYSQELHTDGDETGEVVGYYAQFTLINGFKKADYWTKSAVEEHRSRFSKSKSGPWSTDFDAMAQKTVLKSILQYAPKSSEMTRAMASEDMNGDISEGTAKPIDITPETETPKVEEANQNQQIDTNEMVDEIKEYAKETNEAPKEQTVSAADEFFK | −4.425 | −0.688 | −5.964 | −1.008 | −5.195
SSAP_243: SEQ ID NO: 412; Nocardia puris (protein, listed as Nocardia puris) AESISSEVARQASPLAVVARYRSELAGSLPAAVRHDVDRWLMVAEMAVRRSPDLMEIVRRDQGASLMRALIECARLGHEPGSPEFYLIPRGGIVSGEESYRGIIKRILNSGEYQRVVARVVHERDRFSFDPRIDEIPDHRPAEGERGAPARAYAFAVRWDGTPSTVGEATPERIIAAKAKARGVDRKDSPWNSPTGVMYRKTAIRELASYVHTSAEPRPRPAAPTEPPAVDEVSTVYDAEVIDEVDVLDITAEPTA | −1.310 | −0.511 | −5.989 | −1.036 | −3.650
SSAP_112: SEQ ID NO: 281; Bacillus sp. UNC322MFChir4.1 (protein, listed as Bacillus sp.) ATNKDVKNQLANRKENKPATPEQKVEAYMTAMAPRFAEVLPKHMSMDRMSRIALTTIRTNPKLLECSVPSLMGAVMQAVQLGLEPGLLGHCYILPYKSEATFIIGYKGMIDLARRSGHIQSIYAHAVYENDEFDYELGLHPKLTHKPSFGERGEFIGAYAVAHFKDGGHQMEFMPKSEIEKRRSRSASGNSSYSPWKSDYEEMAKKTVVRYMFKYLPISIEVQSQAQHDEVVRKDITEEPEFIEMDSIEVAEASEGDGQKEFVIEE | −1.038 | −0.628 | −6.027 | −0.986 | −3.533
SSAP_167: SEQ ID NO: 336; Ruminococcus sp. (protein, listed as Ruminococcus sp.) GTSIQKNVENNALQKEKMPTMQAYIKKMEGEIKKALPSVMTPERFTRITLSALSTNPKLAATTPGSFLGAMMTAAQLGLEPNTPLGQAYLIPYSNKGKLECQFQIGYKGLIDLAYRSGSISVIQAHTVYENDDFEYELGLDPKLKHIPSKSADKGNPAWFYAVFKTKDGGYGFEVMSIEDIRSHAAKYSQSYNSAYSPWKTNFEEMAKKTVLKKALKYAPLKSDFVRQISTDETIKTKLSDDMFSVPAETIEVEGIEVDTETGEITEVDHA | −1.337 | −0.698 | −6.070 | −0.834 | −3.703
SSAP_125: SEQ ID NO: 294; Lysinibacillus fusiformis (protein, listed as Lysinibacillus fusiformis) ATTNELKAKSQNQVQQNVTPEQSLNTLLKRMGPQIQRALPKHMDADRIARIALTAVRATPKLLECDQMSFVAALMQSAQLGVEPNTGLGQAYLIPYGKQVQFQLGYKGLIDLAVRSGQYKAIYAHEVYKEDEFSFAYGLHKDLVHVPSTNPEGEPIGYYAVYHLKNGGYDFVYWTRERIDKHAHEFSQAVKKGWTSPWKTNYDAMAKKTVLKEVLKYAPKSIELQKVVEADETIKTEVSEDMSDVIDVTDYSVIEDESAQEELIIEQ | −1.981 | −0.329 | −6.106 | −1.313 | −4.043
SSAP_2: SEQ ID NO: 173 (protein) ATNESLKNQLTTKKETGLGSAGNTIKGLMNSPAIKKRFEEVLKQRAPQYMSSIVNLVNSDINLKKCDQMSVVASCMVAATLDLPVDKNLGYAWVVPYGNKAQFQLGYKGYVQLALRTGQYKSINVIEIHEGELIDWNPLTEELKIDFSKKESDAVIGYAGYFELLNGFKKSTYWTKEQITKHKNKFSKSDFGWKKDFDAMARKTVLRNMLSKWGILSIEMQNAYTADQGIIKNEIMETGEVKENIEYIEADFESYEDNSIEEGGANE | −7.779 | −1.250 | −6.114 | −1.204 | −6.946
SSAP_281: SEQ ID NO: 450; Leucobacter luti (protein, listed as Leucobacter luti) SDLSQAAVAVKKSKTVEDYLTEYEPQFQRALGKSMDAAKFSQDALTAIKQTPQLGQADLQTLFGSLFLAAQLKLPVGGPLAQFHLTPRKRGDKLEVLPIIGFGGYVQLIMNTGLYSKVGAFLIYEKDYFDEGANSERGEFYDFKKSRGDRGPVVGVIAYVKLKGFDESQYVFLDADTIRSRHRPRYWEKTPWGSDEGEMFKKTGVRVLQKLLPKSVEAAPLALAADADQATVRKVDGIEDLTIQHDVVDAEVVPDGVPV | −1.121 | −0.672 | −6.188 | −0.973 | −3.655
SSAP_136: SEQ ID NO: 305; Corynebacterium striatum (protein, listed as Corynebacterium striatum) GTNLEQRMAANNAPAKQNRPVTLADQIRSMESQFQLAMPKGMEAQQLVRDALTCLRQTPKLAECTPQSVLGGLMTCSQLGLRPGVLGHAYLLPFWDRKQGGMVAQLVVGYRGLVELAHRSGQIQSLIARTVYENDHFDVDYGLDDKLVHKPCMNGPKGNPIAYYAVAKFTTGGHSFIVMSKDEMLAYRDEFAKAKNKQGEVFGPWADNFDAMAHKTCVRQLAKWMPSSTDLDRGIAADETVRVDLSESALDYPQHVDGEVVDSKPAEDEAA | −0.594 | −0.262 | −6.395 | −0.952 | −3.495
